Laboratory results taken from US20250043302A1, “MUTATED HYDROXYPHENYLPYRUVATE DIOXYGENASE POLYPEPTIDE, AND CODING GENE AND USE THEREOF” (BEIJING DABEINONG BIOTECHNOLOGY CO., LTD., priority 2021, published 2025).

Legend:
[1] = test system: Arabidopsis thaliana T1 plants; experiment: Isoxaflutole tolerance of transgenic Arabidopsis thaliana T1 plants (spray, bleached leaf area grade, damage score); format: in vivo; conditions: for Classification and statistics of the grade of pesticide damage Grade 0 / Classification and statistics of the grade of pesticide damage Grade 1 / Classification and statistics of the grade of pesticide damage Grade 2 / Classification and statistics of the grade of pesticide damage Grade 3: number of plants in grade; for Classification and statistics of the grade of pesticide damage: Grade 0 / Classification and statistics of the grade of pesticide damage: Grade 1 / Classification and statistics of the grade of pesticide damage: Grade 2 / Classification and statistics of the grade of pesticide damage: Grade 3: number of plants;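 for Scores: Weighted damage index from 0 to 100 where higher means more damage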
Method in brief: (§1)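 Read-out: per-plant damage grade 0–3 from proportion of bleached leaf area at 7 DAT (1 <50%, 2 >50%, 3 100%). Plants were T1 transformants, glufosinate-selected, plus wild-type CK, sprayed 18 days post-sowing. Rates: topramezone 25–200, isoxaflutole 35–280, mesotrione 52.5–420 g ai/ha.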

[2] = test system: Arabidopsis thaliana T1 plants; experiment: Mesotrione tolerance of transgenic Arabidopsis thaliana T1 plants (spray, bleached leaf area grade, damage score); format: in vivo; set-up: Scores: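 damage score 0-100 computed as Σ(N×S)/(T×M)×100 over grades 0-3 with higher meaning more damage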
Method in brief: as §1

[3] = isoxaflutole 140 g ai/ha (2×), 7 DAT, Table 2
[4] = isoxaflutole 280 g ai/ha (4×), 7 DAT, Table 2
[5] = mesotrione 210 g ai/ha, number of plants in grade

B1: AsHPPDm-F372A-02: nucleotide sequence encoding Avena sativa HPPD with F372A; vector DBN11728 (nucleic acid)
DNA: ATGCCACCTACTCCAGCTACAGCTACTGGTGCTGCTGCTGCTGCCGTTACTCCTGAGCACGCTGCCAGGTCATTCCCCAGGGTGGTTCGCGTGAACCCCAGATCTGATAGGTTCCCAGTTCTGAGCTTCCACCATGTTGAGCTGTGGTGCGCTGATGCTGCTTCTGCTGCTGGCAGGTTCTCTTTCGCTCTTGGTGCTCCACTCGCTGCTAGATCTGATCTGTCTACAGGAAATAGCGCTCATGCCTCACTCCTGCTTCGCTCAGGTGCTTTGGCCTTCCTCTTCACCGCTCCATATGCTCCCCCACCTCAGGAGGCTGCTACTGCTGCTGCTACAGCCTCCATTCCAAGCTTCTCAGCTGATGCCGCTAGAACCTTCGCTGCTGCTCATGGACTTGCCGTGAGGTCTGTTGGTGTTCGCGTGGCTGATGCTGCTGAGGCTTTCAGAGTTTCCGTTGCCGGCGGAGCTAGGCCAGCTTTCGCTCCTGCTGATTTGGGACATGGTTTCGGCCTGGCTGAGGTTGAGCTTTACGGTGACGTGGTTCTCCGCTTCGTGTCTTACCCAGATGAGACTGACCTGCCTTTCCTTCCCGGCTTCGAGAGAGTTTCCTCTCCTGGTGCCGTGGATTACGGCCTGACAAGGTTCGACCACGTGGTTGGAAACGTTCCCGAGATGGCTCCAGTGATCGATTACATGAAGGGCTTCCTTGGATTCCATGAGTTCGCCGAGTTCACTGCTGAGGACGTGGGAACCACTGAGTCCGGTTTGAACTCTGTGGTTCTCGCCAACAATTCTGAGGCTGTTTTGCTCCCTCTGAATGAGCCTGTGCATGGAACCAAGAGGAGAAGCCAGATTCAAACTTACCTGGAGTACCACGGTGGCCCTGGAGTTCAGCATATCGCCCTTGCTTCTAATGATGTGTTGCGCACACTCAGAGAGATGCGCGCCAGAACCCCCATGGGAGGTTTCGAGTTCATGGCCCCACCACAGGCTAAGTACTACGAGGGCGTTAGAAGGATTGCTGGAGACGTGTTGAGCGAGGAGCAGATCAAGGAGTGCCAAGAGCTGGGTGTTCTTGTGGATAGGGATGACCAGGGCGTTCTGCTTCAAATTGCCACTAAGCCAGTGGGCGACCGCCCTACATTCTTCCTTGAGATGATTCAAAGAATCGGCTGCATGGAGAAGGATGAGGTTGGACAGGAGTACCAAAAGGGCGGATGCGGTGGCTTCGGAAAGGGTAACTTCAGCGAGTTGTTCAAGTCAATCGAGGACTACGAGAAGAGCCTCGAGGTGAAGCAGTCAGTGGTTGCCCAAAAGTCCTGA
modifications: AsHPPDm-F372A-02 Nucleotide Sequence
notes: vector DBN11728
tolerance to isoxaflutole (in words) ([1]; in vivo): different degrees of tolerance
Resistance evaluation ([1]; isoxaflutole 140 g ai/ha): Moderately
Scores ([1]; isoxaflutole 140 g ai/ha): 33
Resistance evaluation [1, 3]: moderately
Classification and statistics of the grade of pesticide damage Grade 0 ([1]; isoxaflutole 140 g ai/ha): 5
Classification and statistics of the grade of pesticide damage Grade 1 ([1]; isoxaflutole 140 g ai/ha): 6
Classification and statistics of the grade of pesticide damage Grade 2 ([1]; isoxaflutole 140 g ai/ha): 5
Classification and statistics of the grade of pesticide damage Grade 3 ([1]; isoxaflutole 140 g ai/ha): 0
Resistance evaluation ([1]; isoxaflutole 280 g ai/ha): Poorly
Scores ([1]; isoxaflutole 280 g ai/ha): 67
Resistance evaluation [1, 4]: poorly resistant (poorly resistant plants (scores 34-67))
Classification and statistics of the grade of pesticide damage Grade 0 ([1]; isoxaflutole 280 g ai/ha): 0
Classification and statistics of the grade of pesticide damage Grade 1 ([1]; isoxaflutole 280 g ai/ha): 0
Classification and statistics of the grade of pesticide damage Grade 2 ([1]; isoxaflutole 280 g ai/ha): 16
Classification and statistics of the grade of pesticide damage Grade 3 ([1]; isoxaflutole 280 g ai/ha): 0
tolerance to isoxaflutole (resistance class) ([1]; isoxaflutole at four-fold field concentration): poorly-resistant
tolerance to isoxaflutole (resistance class) ([1]; isoxaflutole at two-fold field concentration): moderately-resistant
Classification and statistics of the grade of pesticide damage: Grade 0 [1, 3]: 5
Classification and statistics of the grade of pesticide damage: Grade 1 [1, 3]: 6
Classification and statistics of the grade of pesticide damage: Grade 2 [1, 3]: 5
Classification and statistics of the grade of pesticide damage: Grade 3 [1, 3]: 0
Classification and statistics of the grade of pesticide damage: Grade 0 [1, 4]: 0
Classification and statistics of the grade of pesticide damage: Grade 1 [1, 4]: 0
Classification and statistics of the grade of pesticide damage: Grade 2 [1, 4]: 16
Classification and statistics of the grade of pesticide damage: Grade 3 [1, 4]: 0
Scores ([1]; pesticide damage score 0-100, isoxaflutole 140 g ai/ha (2×), 7 DAT, Table 2): 33
Scores ([1]; pesticide damage score 0-100, isoxaflutole 280 g ai/ha (4×), 7 DAT, Table 2): 67
tolerance to mesotrione (in words) ([2]; in vivo): different degrees of tolerance
Resistance evaluation ([2]; mesotrione 210 g ai/ha): Moderately
Scores ([2]; mesotrione 210 g ai/ha): 31
Resistance evaluation ([2]; mesotrione 210 g ai/ha (two-fold field concentration), 7 DAT, Table 3): moderately
Classification and statistics of the grade of pesticide damage Grade 0 [2, 5]: 5
Classification and statistics of the grade of pesticide damage Grade 1 [2, 5]: 7
